Legend:
[1] = biological target: prokineticin receptor expressed endogenously on M2A7 melanoma cells (ATCC CRL-2500); assay: cell-based or functional assay
[2] = biological target: prokineticin receptor(s) of guinea pig ileal membrane / ileal smooth muscle (guinea pig); assay: cell-based or functional assay

Row | Substance | EC50, calcium mobilization in M2A7 melanoma cells (FLIPR) [1] | ED50, contraction of guinea-pig ileum longitudinal muscle [2]
1 | recombinant human prokineticin 2 (refolded, 6xHis-tagged, unlabeled) (from UniProt Q9HC23 28-129) (ligand) | 21 nM | 0.9 nM
2 | recombinant human prokineticin 1 (refolded, 6xHis-tagged, unlabeled) (from UniProt P58294 20-105) (ligand) | 12 nM | 0.46 nM

Reference: patent publication EP1506971A1
